Source: patent US20230272067A1 (HUAHUI HEALTH, published 2023)
Changes are numbered by the printed parent chain. Numbers in names are those of the source.

Experiments:
[1] = target: T1, full-length human TIGIT expressed on cells (human, UniProt Q495A1 22-244); assay: FACS on CHO cells transiently expressing full-length hTIGIT, hIgG1 format
T1 construct: whole, on cells; also called CHO-hTIGIT; YTS-hTIGIT
T1 sequence (looked up): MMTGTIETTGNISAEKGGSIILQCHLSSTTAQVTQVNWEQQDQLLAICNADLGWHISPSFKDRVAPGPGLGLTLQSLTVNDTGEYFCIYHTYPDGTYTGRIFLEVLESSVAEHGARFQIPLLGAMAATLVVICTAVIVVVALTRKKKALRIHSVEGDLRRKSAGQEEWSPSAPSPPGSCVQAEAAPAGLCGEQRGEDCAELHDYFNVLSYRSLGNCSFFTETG
Procedure: (§1) For epitope mapping, chimeras of human TIGIT IgV domain and N-terminal IgV domain D1 of hCD155 were constructed by replacing residues in the extracellular regions of hTIGIT with the corresponding residues from hCD155 D 1. These chimera and variants were expressed by transient transfection of CHO or 293T cells, their cell surface expression levels were assessed by using a mAb GC33 recognizing the N-terminal tag fused to each of the chimera and variant or hCD155-hFc (4). The binding of testing Abs in human IgG1 (hIgG1) format or hCD155-hFc to these transfectants were detected by using goat anti-human IgG-FITC antibody (Thermo Fisher Scientific). The cells were then analyzed with FACS machine (BD Accuri™ C6).
By transfecting CHO cells with these hTIGIT/hCD155 chimeras or hTIGIT variants, and by subsequently analyzing T4, CS19ME3-23, and CS19ME3-30-N Abs binding to these CHO transfectant cells by FACS, it was identified that the FG Loop in the extracellular IgV domain of hTIGIT is critical for these Abs′ binding (FIG. 12B). […] Thus, by binding to the FG Loop, these three Abs block the binding of TIGIT to its ligand CD155. Due to the high amino acid sequence homology in this loop between hTIGIT and mTIGIT, these three Abs are able to cross-react with both of them.

[2] = target: T2, extracellular domain (ECD) of mouse TIGIT (mouse, UniProt P86176 29-148, biotinylated (site not stated)); assay: SPR (Biacore T200), multi-cycle kinetics, FIG. 11 (hTIGIT or mTIGIT)
T2 construct: extracellular domain; Used captured on streptavidin in ELISA and as analyte in SPR (extracellular domain); also called mTIGIT-ECD; mTIGIT-ECD-Biotin; not shown: expressed as a biotinylated recombinant fusion protein
T2 sequence (looked up): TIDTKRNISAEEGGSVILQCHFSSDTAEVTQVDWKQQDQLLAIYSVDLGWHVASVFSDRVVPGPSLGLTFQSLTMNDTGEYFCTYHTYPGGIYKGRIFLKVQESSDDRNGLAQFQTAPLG

[3] = target: T3, extracellular domain (ECD) of human TIGIT (human, UniProt Q495A1 22-141, biotinylated (site not stated)); assay: as above
T3 construct: extracellular domain; Used captured on streptavidin in ELISA and as analyte in SPR (extracellular domain); also called hTIGIT-ECD; hTIGIT-ECD-Biotin; not shown: expressed as a biotinylated recombinant fusion protein
T3 sequence (looked up): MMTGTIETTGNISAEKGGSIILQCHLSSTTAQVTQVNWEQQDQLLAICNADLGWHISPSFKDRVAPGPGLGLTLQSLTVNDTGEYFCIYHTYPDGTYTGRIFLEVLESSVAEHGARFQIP

[4] = target: T4, hTIGIT variant K82A (full length, on 293T cells) (human, UniProt Q495A1 22-244); assay: FACS on 293T cells transiently expressing the variant
T4 construct: whole, on cells
T4 sequence (looked up): T1 sequence (looked up) with K61A
Procedure: as §1
(§2) To investigate the role of these residues in the binding of anti-TIGIT antibodies of the present disclosure to hTIGIT, three hTIGIT variants each having a single point mutation selected from S78A, […], and K82A were generated. By transfecting 293T cells with these hTIGIT variants and by subsequently analyzing CS19ME3-30-N Abs binding to these 293T transfectant cells by FACS, it was identified that none of the three residues in the extracellular IgV domain of hTIGIT is critical for these Abs′ binding (FIG. 12C).

[5] = target: T5, hTIGIT variant S78A (full length, on 293T cells) (human, UniProt Q495A1 22-244); assay: as above
T5 construct: whole, on cells
T5 sequence (looked up): T1 sequence (looked up) with S57A
Procedure: as §1, §2

[6] = target: T6, hTIGIT variant S80A (full length, on 293T cells) (human, UniProt Q495A1 22-244); assay: as above
T6 construct: whole, on cells; also called 580A [sic]
T6 sequence (looked up): T1 sequence (looked up) with S59A
Procedure: as §1, §2

[7] = target: T2, extracellular domain (ECD) of mouse …; assay: SPR (Biacore T200), multi-cycle kinetics
[8] = target: T3, extracellular domain (ECD) of human …; assay: SPR (Biacore T200), multi-cycle kinetics

Measured: binding result

B1: CS19ME3-23 (antibody, human IgG1, V domains shown)
VH: EVQLLESGGGLVQPGGSLRLSCAASGFTFSSYAMHWVRQAPGKGLEWVAVISYDGSNKYYADSVKGRFTISRDNSKNTLYLQMNSLRAEDTAVYYCATLEGGGRYYDFWSADYWGQGTLVTVSS
VL: QSALTQPRSVSGSPGQSVTISCTGTSSDVGGYNFVSWYQQHPGKAPKLLIYAVSKRPSGVPDRFSGSKSGNTASLTISGLQAEDEADYYCSSYSSESTRVVFGGGTKLTVL
notes: tested as human IgG1 (hIgG1); also called CS19ME3-23 Ab
binds: [1] | [2] | [3]

B2: CS19ME3-30-N (antibody, human IgG1, V domains shown)
VH: B1 VH with E1Q, L5V, L11V, G16R
VL: B1 VL with K55N
notes: tested as human IgG1 (hIgG1); also called CS19ME3-30-N Ab
not listed: [7] | [8]
binds: all other assays above

B3: T4M (antibody, V domains shown)
VH: QVQLQQWGAGLLKPSETLSLTCAVYGGSFNDYYWTWIRQAPGKGLEWIGEITHSGSADYNPSLKSRVTISVDTSKNQFSLKLRSVTAADTAVYYCARGLKLFRWKKTTVTTFPPYYYGMDVWGQGTTVTVSS
VL: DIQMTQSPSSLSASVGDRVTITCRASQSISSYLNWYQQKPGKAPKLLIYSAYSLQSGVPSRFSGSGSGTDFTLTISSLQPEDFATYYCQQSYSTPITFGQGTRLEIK
notes: T4 Vk with S50 and Y52 incorporated; IgG format captured by anti-hFc in SPR; also called T4M Ab
binds: [7] | [8]
